Article PMC7954794, “Protein context shapes the specificity of SH3 domain-mediated interactions in vivo” (Nature Communications, 2021)

B1: YBL085W (protein, UniProt P38041 1-980, looked up)
BEM1-interacting protein 1: MSLEGNTLGKGAKSFPLYIAVNQYSKRMEDELNMKPGDKIKVITDDGEYNDGWYYGRNLRTKEEGLYPAVFTKRIAIEKPENLHKSPTQESGNSGVKYGNLNDSASNIGKVSSHQQENRYTSLKSTMSDIDKALEELRSGSVEQEVSKSPTRVPEVSTPQLQDEQTLIQEKTRNEENTTHDSLFSSTADLNLSSESLKNISKSNISTKSLEPSSESVRQLDLKMAKSWSPEEVTDYFSLVGFDQSTCNKFKEHQVSGKILLELELEHLKELEINSFGIRFQIFKEIRNIKSAIDSSSNKLDADYSTFAFENQAAQLMPAATVNRDEIQQQISSKCNKLSSESSDRKSSSVTTELQRPSSVVVNPNFKLHDPAEQILDMTEVPNLFADKDIFESPGRAPKPPSYPSPVQPPQSPSFNNRYTNNNARFPPQTTYPPKNKNPTVYSNGLIPNSSTSSDNSTGKFKFPAMNGHDSNSRKTTLTSATIPSINTVNTDESLPAISNISSNATSHHPNRNSVVYNNHKRTESGSSFVDLFNRISMLSPVKSSFDEEETKQPSKASRAVFDSARRKSSYGHSRDASLSEMKKHRRNSSILSFFSSKSQSNPTSPTKQTFTIDPAKMTSHSRSQSNSYSHARSQSYSHSRKHSLVTSPLKTSLSPINSKSNIALAHSETPTSSNNKEAVSQPSEGKHKHKHKHKSKHKHKNSSSKDGSSEEKSKKKLFSSTKESFVGSKEFKRSPSELTQKSTKSILPRSNAKKQQTSAFTEGIRSITAKESMQTADCSGWMSKKGTGAMGTWKQRFFTLHGTRLSYFTNTNDEKERGLIDITAHRVLPASDDDRLISLYAASLGKGKYCFKLVPPQPGSKKGLTFTEPRVHYFAVENKSEMKAWLSAIIKATIDIDTSVPVISSYATPTIPLSKAQTLLEEARLQTQLRDAEEEEGRDQFGWDDTQNKRNSNYPIEQDQFETSDYLESSAFEYPGGRL
B2: YGR281W (protein, UniProt P53049 1-1477, looked up)
Oligomycin resistance …: MTITVGDAVSETELENKSQNVVLSPKASASSDISTDVDKDTSSSWDDKSLLPTGEYIVDRNKPQTYLNSDDIEKVTESDIFPQKRLFSFLHSKKIPEVPQTDDERKIYPLFHTNIISNMFFWWVLPILRVGYKRTIQPNDLFKMDPRMSIETLYDDFEKNMIYYFEKTRKKYRKRHPEATEEEVMENAKLPKHTVLRALLFTFKKQYFMSIVFAILANCTSGFNPMITKRLIEFVEEKAIFHSMHVNKGIGYAIGACLMMFVNGLTFNHFFHTSQLTGVQAKSILTKAAMKKMFNASNYARHCFPNGKVTSFVTTDLARIEFALSFQPFLAGFPAILAICIVLLIVNLGPIALVGIGIFFGGFFISLFAFKLILGFRIAANIFTDARVTMMREVLNNIKMIKYYTWEDAYEKNIQDIRTKEISKVRKMQLSRNFLIAMAMSLPSIASLVTFLAMYKVNKGGRQPGNIFASLSLFQVLSLQMFFLPIAIGTGIDMIIGLGRLQSLLEAPEDDPNQMIEMKPSPGFDPKLALKMTHCSFEWEDYELNDAIEEAKGEAKDEGKKNKKKRKDTWGKPSASTNKAKRLDNMLKDRDGPEDLEKTSFRGFKDLNFDIKKGEFIMITGPIGTGKSSLLNAMAGSMRKTDGKVEVNGDLLMCGYPWIQNASVRDNIIFGSPFNKEKYDEVVRVCSLKADLDILPAGDMTEIGERGITLSGGQKARINLARSVYKKKDIYLFDDVLSAVDSRVGKHIMDECLTGMLANKTRILATHQLSLIERASRVIVLGTDGQVDIGTVDELKARNQTLINLLQFSSQNSEKEDEEQEAVVAGELGQLKYESEVKELTELKKKATEMSQTANSGKIVADGHTSSKEERAVNSISLKIYREYIKAAVGKWGFIALPLYAILVVGTTFCSLFSSVWLSYWTENKFKNRPPSFYMGLYSFFVFAAFIFMNGQFTILCAMGIMASKWLNLRAVKRILHTPMSYIDTTPLGRILNRFTKDTDSLDNELTESLRLMTSQFANIVGVCVMCIVYLPWFAIAIPFLLVIFVLIADHYQSSGREIKRLEAVQRSFVYNNLNEVLGGMDTIKAYRSQERFLAKSDFLINKMNEAGYLVVVLQRWVGIFLDMVAIAFALIITLLCVTRAFPISAASVGVLLTYVLQLPGLLNTILRAMTQTENDMNSAERLVTYATELPLEASYRKPEMTPPESWPSMGEIIFENVDFAYRPGLPIVLKNLNLNIKSGEKIGICGRTGAGKSTIMSALYRLNELTAGKILIDNVDISQLGLFDLRRKLAIIPQDPVLFRGTIRKNLDPFNERTDDELWDALVRGGAIAKDDLPEVKLQKPDENGTHGKMHKFHLDQAVEEEGSNFSLGERQLLALTRALVRQSKILILDEATSSVDYETDGKIQTRIVEEFGDCTILCIAHRLKTIVNYDRILVLEKGEVAEFDTPWTLFSQEDSIFRSMCSRSGIVENDFENRS
B3: YKL051W (protein, UniProt P35735 1-353, looked up)
Protein SFK1: MIQFKSPGNWLFIVPWIAFIPWYGMLIAMLICWASQGHPIYWFMHSEQFPVYISDIGATNLRPLFISCAGWQGLGYVITVALEFFQRSGYLPFQLKKKDPSISDSTSYAEKLHSGKYLMPPYYTKDERNLIFAAFVLGSIGELALLFSSIFSTALYHRVHIAMVSVFVVFMFLSTCCLIAEYFLMGRHYASVHPLASPHFNPQSSEKSFNQDYNTVDELPWYKWKGHVWNKFTISATLKVIWLTLAVVWAICFGAINDRSKSACFEWLLAFWFGIIFMILSADFYLGGRYRQSRYFNHVESFSGYYKYDKALGLYHSEDVLPSDDNAGVIATETASSNIYNNSSSNESIQVVV
B4: YCR002C (protein, UniProt P25342 1-322, looked up)
Cell division control protein …: MDPLSSVQPASYVGFDTITNQIEHRLLKKGFQFNIMVVGQSGLGKSTLINTLFASHLIDSATGDDISALPVTKTTEMKISTHTLVEDRVRLNINVIDTPGFGDFIDNSKAWEPIVKYIKEQHSQYLRKELTAQRERFITDTRVHAILYFLQPNGKELSRLDVEALKRLTEIANVIPVIGKSDTLTLDERTEFRELIQNEFEKYNFKIYPYDSEELTDEELELNRSVRSIIPFAVVGSENEIEINGETFRGRKTRWSAINVEDINQCDFVYLREFLIRTHLQDLIETTSYIHYEGFRARQLIALKENANSRSSAHMSSNAIQR
B5: YBR200W (protein, UniProt P29366 1-551, looked up)
Bud emergence protein 1: MLKNFKLSKRDSNGSKGRITSADISTPSHDNGSVIKHIKTVPVRYLSSSSTPVKSQRDSSPKNRHNSKDITSPEKVIKAKYSYQAQTSKELSFMEGEFFYVSGDEKDWYKASNPSTGKEGVVPKTYFEVFDRTKPSSVNGSNSSSRKVTNDSLNMGSLYAIVLYDFKAEKADELTTYVGENLFICAHHNCEWFIAKPIGRLGGPGLVPVGFVSIIDIATGYATGNDVIEDIKSVNLPTVQEWKSNIARYKASNISLGSVEQQQQQSITKPQNKSAKLVDGELLVKASVESFGLEDEKYWFLVCCELSNGKTRQLKRYYQDFYDLQVQLLDAFPAEAGKLRDAGGQWSKRIMPYIPGPVPYVTNSITKKRKEDLNIYVADLVNLPDYISRSEMVHSLFVVLNNGFDREFERDENQNNIKTLQENDTATFATASQTSNFASTNQDNTLTGEDLKLNKKLSDLSLSGSKQAPAQSTSGLKTTKIKFYYKDDIFALMLKGDTTYKELRSKIAPRIDTDNFKLQTKLFDGSGEEIKTDSQVSNIIQAKLKISVHDI

Test system: BOI2
Assay: DHFR-PCA on solid medium, bait BOI2 (Fig. 1B)
Type: cell-based, Saccharomyces cerevisiae
Settings: bait BOI2, label = prey; 3-8 replicates
Description: (§1) Supplement 41467_2021_21873_MOESM8_ESM.xlsx, sheet "Fig1B" | column: medsize; medrep; Ratio; Score

Molecule | medrep (log2 median colony size normalized to plate background, PCA score)
B1 | 3.465
B2 | 2.696
B3 | 3.168
B4 | 1.509
B5 | 4.509

Test system: ABP1
Assay: DHFR-PCA on solid medium, bait ABP1 (Fig. 1B)
Type: cell-based, Saccharomyces cerevisiae
Settings: bait ABP1, label = prey; 2-4 replicates
Description: as §1

Molecule | medrep (log2 median colony size normalized to plate background, PCA score)
B4 | 2.496
B5 | 1.73

Same assay, conditions: bait ABP1, label = prey; only significant differences showed; PPIs completely lost have a ratio of 0.1 and the gained PPIs 2.5

Molecule | Ratio (SH3-deleted/WT medrep)
B5 | 2.5

Test system: BEM1-1
Assay: DHFR-PCA on solid medium, bait BEM1-1 (Fig. 1B)
Type: cell-based, Saccharomyces cerevisiae
Settings: bait BEM1-1, label = prey; 2-8 replicates
Description: as §1

Molecule | medrep (log2 median colony size normalized to plate background, PCA score)
B1 | 1.5623
B2 | 2.579
B3 | 3.661
B4 | 3.007
B5 | 4.2138

Same assay, conditions: bait BEM1-1, label = prey; only significant differences showed; PPIs completely lost have a ratio of 0.1 and the gained PPIs 2.5

Molecule | Ratio (SH3-deleted/WT medrep)
B1 | 0.5621
B3 | 0.1

Test system: BEM1-2
Assay: DHFR-PCA on solid medium, bait BEM1-2 (Fig. 1B)
Type: cell-based, Saccharomyces cerevisiae
Settings: bait BEM1-2, label = prey; 2-8 replicates
Description: as §1

Molecule | medrep (log2 median colony size normalized to plate background, PCA score)
B1 | 2.78
B2 | 2.579
B3 | 1.764
B4 | 3.007
B5 | 1.887

Same assay, conditions: bait BEM1-2, label = prey; only significant differences showed; PPIs completely lost have a ratio of 0.1 and the gained PPIs 2.5

Molecule | Ratio (SH3-deleted/WT medrep)
B1 | 0.1
B2 | 0.1
B3 | 0.482
B4 | 0.1
B5 | 0.4478

Test system: BBC1
Assay: DHFR-PCA on solid medium, bait BBC1 (Fig. 1B)
Type: cell-based, Saccharomyces cerevisiae
Settings: bait BBC1, label = prey; 2-4 replicates
Description: as §1

Molecule | medrep (log2 median colony size normalized to plate background, PCA score)
B2 | 1.516
B3 | 4.283

Same assay, conditions: bait BBC1, label = prey; only significant differences showed; PPIs completely lost have a ratio of 0.1 and the gained PPIs 2.5

Molecule | Ratio (SH3-deleted/WT medrep)
B2 | 0.4155

Test system: BOI1
Assay: DHFR-PCA on solid medium, bait BOI1 (Fig. 1B)
Type: cell-based, Saccharomyces cerevisiae
Settings: bait BOI1, label = prey; 3-8 replicates
Description: as §1

Molecule | medrep (log2 median colony size normalized to plate background, PCA score)
B1 | 1.7279
B2 | 1.486
B3 | 2.409
B4 | 1.419
B5 | 3.166

Same assay, conditions: bait BOI1, label = prey; only significant differences showed; PPIs completely lost have a ratio of 0.1 and the gained PPIs 2.5

Molecule | Ratio (SH3-deleted/WT medrep)
B2 | 2.5
B3 | 1.668
B4 | 0.1
